Data: patent US20240376151A1, “STAPLED PEPTIDES AND METHODS THEREOF” (FOG PHARMACEUTICALS, INC., priority 2022, published 2024)

Target: T1, RNF31 PUB domain (Homo sapiens, UniProt Q96EP0)
T1 construct: MBP-TEV (N, cleaved yes); made in house; host or cells: E. coli BL21 (DE3) pLysS
T1 sequence (Q96EP0 1-179): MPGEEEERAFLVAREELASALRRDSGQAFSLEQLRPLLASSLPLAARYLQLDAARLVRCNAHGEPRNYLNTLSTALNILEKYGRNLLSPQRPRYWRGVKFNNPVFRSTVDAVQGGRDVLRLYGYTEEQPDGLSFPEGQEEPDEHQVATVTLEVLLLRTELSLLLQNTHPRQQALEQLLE
Assay: Phage Library Screening with NGS, RNF31 PUB domain
Type: binding
Conditions: for Phage library screen NGS readout, Target Concentration 10 / Phage library screen NGS readout, Target Concentration 30 / Phage library screen NGS readout, Target Concentration 100 / Phage library screen NGS readout, Target Concentration 300 / Phage library screen NGS readout, Target Concentration 1000: RNF31 PUB domain clusters C41-C45; for Phage library screen NGS readout, BLANK: clusters C41-C45

[1] = target concentration 1000, first column
[2] = target concentration 1000, second column

| Phage library screen NGS readout, Target Concentration 10 | Phage library screen NGS readout, Target Concentration 30 | Phage library screen NGS readout, Target Concentration 100 | Phage library screen NGS readout, Target Concentration 300 | Phage library screen NGS readout, Target Concentration 1000 [1] | Phage library screen NGS readout, Target Concentration 1000 [2] | Phage library screen NGS readout, BLANK (column 1 of 5) | Phage library screen NGS readout, BLANK (column 2 of 5) | Phage library screen NGS readout, BLANK (column 3 of 5) | Phage library screen NGS readout, BLANK (column 4 of 5) | Phage library screen NGS readout, BLANK (column 5 of 5) | Sequence |
| --- | --- | --- | --- | --- | --- | --- | --- | --- | --- | --- | --- |
| 1 | 0 | 0 | 3 | 31 | 12 | 0 | 0 | 0 | 0 | 1 | DPAFDWCLYAADDCAET |
| 0 | 0 | 0 | 13 | 49 | 33 | 1 | 0 | 0 | 0 | 0 | DPAHANCQLAADVCSTY |
| 0 | 0 | 0 | 0 | 8 | 4 | 0 | 0 | 0 | 0 | 0 | DPAWTDCDWAALYCDES |
| 0 | 0 | 1 | 14 | 44 | 32 | 0 | 0 | 0 | 0 | 0 | DPAEEYCLEAAILCTYD |
| 1 | 0 | 0 | 0 | 6 | 6 | 0 | 0 | 0 | 1 | 0 | DPAWTDCDWAALYCEFQ |
| 0 | 4 | 0 | 12 | 46 | 67 | 0 | 0 | 0 | 0 | 0 | DPAAEDCHIAAMVCMTY |
| 0 | 0 | 0 | 6 | 27 | 15 | 0 | 0 | 0 | 0 | 4 | DPAIDACYDAAVMCTYV |
| 0 | 0 | 0 | 4 | 14 | 13 | 0 | 0 | 0 | 0 | 0 | DPAIQECYLAAQVCTTY |
| 0 | 1 | 0 | 1 | 6 | 6 | 0 | 0 | 0 | 0 | 0 | DPAMQDCQLAALVCTTY |
| 0 | 1 | 0 | 1 | 7 | 10 | 0 | 0 | 0 | 0 | 0 | DPAWTQCDWAALYCEDQ |
| 0 | 0 | 0 | 10 | 70 | 64 | 0 | 0 | 0 | 0 | 0 | DPAYEDCAWAALYCDMT |
| 0 | 0 | 0 | 22 | 44 | 37 | 0 | 0 | 1 | 0 | 0 | DPAQDQCISAAVLCTYT |
| 0 | 0 | 1 | 2 | 15 | 8 | 0 | 0 | 0 | 0 | 0 | DPAHDWCLYAAYDCRVY |
| 0 | 0 | 0 | 29 | 56 | 80 | 0 | 0 | 0 | 0 | 0 | DPAQEACWDAAIMCTYR |
